US11946041B2, “Modification of polypeptides” (BicycleRD Limited, priority 2017, dated 2024)

What was measured:
CCR4 [1] = molecular target: T1, CCR4 (Homo sapiens, UniProt P51679); experiment: PathHunter eXpress CCR4 CHO-K1 β-Arrestin GPCR Assay, agonist format; format: cell-based
T1 construct: host or cells: CHO-K1
T1 sequence (P51679 1-360): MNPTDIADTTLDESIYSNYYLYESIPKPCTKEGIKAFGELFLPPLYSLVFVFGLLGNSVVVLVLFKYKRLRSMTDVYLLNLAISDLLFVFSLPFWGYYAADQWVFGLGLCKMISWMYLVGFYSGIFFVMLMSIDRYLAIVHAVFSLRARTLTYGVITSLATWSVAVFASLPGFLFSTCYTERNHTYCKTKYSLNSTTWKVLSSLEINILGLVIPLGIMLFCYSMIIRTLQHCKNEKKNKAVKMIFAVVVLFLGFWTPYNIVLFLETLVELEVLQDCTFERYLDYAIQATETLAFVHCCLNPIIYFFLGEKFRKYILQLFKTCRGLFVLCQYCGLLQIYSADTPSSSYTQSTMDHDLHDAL
Description: (§1) The aim of the present experiment was to analyze if if these peptides are functional using a Discoverx Assay, the Beta-Arrestin recruitment assay, to identify agonism or antagonism in the selected peptides.
(§2) Standard protocols used: • PathHunter® eXpress CCR4 CHO-K1 β-Arrestin GPCR Assay. 100 dp (1×96-well)
(§3) The experiment was carried using the manufacturer instructions.
The concentration was increased to test for response at high concentration.

CCR4 [2] = molecular target: T1, CCR4; experiment: PathHunter eXpress CCR4 CHO-K1 β-Arrestin GPCR Assay, antagonist format with CCL22; format: cell-based
Description: as §1, §2, §3
We therefore used the assay in an antagonist format, using 10 nM CCL22.
We repeated this experiment lowering the concentration of CCL22 from 10 nM to 1 nM to show a full inhibition curve.

MT1-MMP hemopexin domain = molecular target: T2, MT1-MMP hemopexin domain (Homo sapiens, UniProt P50281); experiment: MMP-14 FP competition binding between peptide families
T2 construct: Human MMP-14 PEX protein at 71.1 μM monomer
Description: FIG. 6 illustrates an analysis of MT-MMP binding ligands. A: MMP-14 FP direct binding in cell-based selections; 1 nM tracer, 60 min data. 17-98-Sar6-k(FI)-and-17-99-Sar6-k(FI)-bind with Kds of 354 nM and 501 nM respectively. B: competition binding with several combinations of peptides, both fluorescein-labelled or native, from soluble and cell based selections.
FIG. 7 illustrates the competition profile between peptide ligands isolated in this example.
• Human MMP-14 PEX protein at 71.1 μM monomer (previously 77.1 μM) (T-017-011), stored in fridge (4/7/14) • Peptides as described in Results section
Method: • Prepare assay buffer: 20 mM HEPES, 150 mM NaCl, 1 mM CaCl2), 0.1% Tween20 (pH 7.6). Buffer was filtered before use to remove precipitate. • Method according to Example 3 with tracer at 1 nM and MMP-14 PEX at concentrations detailed in the graphs • 60 min data analysed • Results are shown in FIG. 6.

ACPLMSSVNCTAGCA [24-13-00-N001, bicyclic peptide ligand, TBMB scaffold, from CCR4 cell-based selection]
Raw Data (CCR4 [1]; 0.006 nM): 27634
Raw Data (CCR4 [1]; 0.02 nM): 30705
Raw Data (CCR4 [1]; 0.06 nM): 30335
Raw Data (CCR4 [1]; 0.17 nM): 31512
Raw Data (CCR4 [1]; 0.51 nM): 31217
Raw Data (CCR4 [1]; 1.5 nM): 34513
Raw Data (CCR4 [1]; 4.6 nM): 29431
Raw Data (CCR4 [1]; 13.9 nM): 24436
Raw Data (CCR4 [1]; 41.7 nM): 23071
Raw Data (CCR4 [1]; 125 nM): 22524
Raw Data (CCR4 [1]; 375 nM): 20081
Raw Data (CCR4 [1]; high concentration, 0.001 uM): 11252
Raw Data (CCR4 [1]; high concentration, 0.003 uM): 11640
Raw Data (CCR4 [1]; high concentration, 0.008 uM): 12612
Raw Data (CCR4 [1]; high concentration, 0.023 uM): 12684
Raw Data (CCR4 [1]; high concentration, 0.1 uM): 13168
Raw Data (CCR4 [1]; high concentration, 0.2 uM): 13560
Raw Data (CCR4 [1]; high concentration, 0.6 uM): 12989
Raw Data (CCR4 [1]; high concentration, 1.9 uM): 12391
Raw Data (CCR4 [1]; high concentration, 5.6 uM): 12460
Raw Data (CCR4 [1]; high concentration, 16.7 uM): 12506
Raw Data (CCR4 [1]; high concentration, 50 uM): 11512
Raw Data (CCR4 [2]; 1 nM CCL22, 0.001 uM): 229814
Raw Data (CCR4 [2]; 1 nM CCL22, 0.003 uM): 230497
Raw Data (CCR4 [2]; 1 nM CCL22, 0.008 uM): 210841
Raw Data (CCR4 [2]; 1 nM CCL22, 0.023 uM): 219415
Raw Data (CCR4 [2]; 1 nM CCL22, 0.1 uM): 218869
Raw Data (CCR4 [2]; 1 nM CCL22, 0.2 uM): 228712
Raw Data (CCR4 [2]; 1 nM CCL22, 0.6 uM): 229977
Raw Data (CCR4 [2]; 1 nM CCL22, 1.9 uM): 190843
Raw Data (CCR4 [2]; 1 nM CCL22, 5.6 uM): 200574
Raw Data (CCR4 [2]; 1 nM CCL22, 16.7 uM): 156536
Raw Data (CCR4 [2]; 1 nM CCL22, 50 uM): 114497
Raw Data (CCR4 [2]; 10 nM CCL22, 0.001 uM): 195228
Raw Data (CCR4 [2]; 10 nM CCL22, 0.003 uM): 200825
Raw Data (CCR4 [2]; 10 nM CCL22, 0.008 uM): 201223
Raw Data (CCR4 [2]; 10 nM CCL22, 0.023 uM): 183445
Raw Data (CCR4 [2]; 10 nM CCL22, 0.1 uM): 170995
Raw Data (CCR4 [2]; 10 nM CCL22, 0.2 uM): 195355
Raw Data (CCR4 [2]; 10 nM CCL22, 0.6 uM): 181254
Raw Data (CCR4 [2]; 10 nM CCL22, 1.9 uM): 194535
Raw Data (CCR4 [2]; 10 nM CCL22, 5.6 uM): 180947
Raw Data (CCR4 [2]; 10 nM CCL22, 16.7 uM): 179127
Raw Data (CCR4 [2]; 10 nM CCL22, 50 uM): 133745

CPYSWETCLFGDYRC [Peptide 17-88, peptide ligand family from soluble selections against MT1-MMP hemopexin domain]
binding site on MT1-MMP (MT1-MMP hemopexin domain): binds to the collagen binding site
competition with other peptide families (MT1-MMP hemopexin domain): do not cross compete

B1: CCL22: the natural ligand of CCR4; CCL22 Discoverx (Cat no #92-1006) (protein, UniProt O00626 25-93, looked up)
C-C motif chemokine 22: GPYGANMEDSVCCRDYVRYRLPLRVVKHFYWTSDSCPRPGVVLLTFRDKEICADPRVPWVKMILNKLSQ
EC50 (CCR4 [1]): 1.65 nM
Raw Data (CCR4 [1]; 0.006 nM): 37757
Raw Data (CCR4 [1]; 0.02 nM): 41715
Raw Data (CCR4 [1]; 0.06 nM): 57093
Raw Data (CCR4 [1]; 0.17 nM): 84488
Raw Data (CCR4 [1]; 0.51 nM): 111988
Raw Data (CCR4 [1]; 1.5 nM): 135687
Raw Data (CCR4 [1]; 4.6 nM): 172692
Raw Data (CCR4 [1]; 13.9 nM): 209362
Raw Data (CCR4 [1]; 41.7 nM): 230085
Raw Data (CCR4 [1]; 125 nM): 249665
Raw Data (CCR4 [1]; 375 nM): 234176
Raw Data (CCR4 [1]; high concentration, 0.001 uM): 16366
Raw Data (CCR4 [1]; high concentration, 0.003 uM): 23261
Raw Data (CCR4 [1]; high concentration, 0.008 uM): 29739
Raw Data (CCR4 [1]; high concentration, 0.023 uM): 47935
Raw Data (CCR4 [1]; high concentration, 0.1 uM): 67642
Raw Data (CCR4 [1]; high concentration, 0.2 uM): 88410
Raw Data (CCR4 [1]; high concentration, 0.6 uM): 101987
Raw Data (CCR4 [1]; high concentration, 1.9 uM): 118822
Raw Data (CCR4 [1]; high concentration, 5.6 uM): 118686
Raw Data (CCR4 [1]; high concentration, 16.7 uM): 130064
Raw Data (CCR4 [1]; high concentration, 50 uM): 122799
Raw Data (CCR4 [2]; 1 nM CCL22, 0.001 uM): 189754
Raw Data (CCR4 [2]; 1 nM CCL22, 0.003 uM): 206356
Raw Data (CCR4 [2]; 1 nM CCL22, 0.008 uM): 204398
Raw Data (CCR4 [2]; 1 nM CCL22, 0.023 uM): 218834
Raw Data (CCR4 [2]; 1 nM CCL22, 0.1 uM): 225758
Raw Data (CCR4 [2]; 1 nM CCL22, 0.2 uM): 245828
Raw Data (CCR4 [2]; 1 nM CCL22, 0.6 uM): 321207
Raw Data (CCR4 [2]; 1 nM CCL22, 1.9 uM): 425613
Raw Data (CCR4 [2]; 1 nM CCL22, 5.6 uM): 422771
Raw Data (CCR4 [2]; 1 nM CCL22, 16.7 uM): 433500
Raw Data (CCR4 [2]; 1 nM CCL22, 50 uM): 508067
Raw Data (CCR4 [2]; 10 nM CCL22, 0.001 uM): 178148
Raw Data (CCR4 [2]; 10 nM CCL22, 0.003 uM): 150444
Raw Data (CCR4 [2]; 10 nM CCL22, 0.008 uM): 136281
Raw Data (CCR4 [2]; 10 nM CCL22, 0.023 uM): 131693
Raw Data (CCR4 [2]; 10 nM CCL22, 0.1 uM): 151947
Raw Data (CCR4 [2]; 10 nM CCL22, 0.2 uM): 169306
Raw Data (CCR4 [2]; 10 nM CCL22, 0.6 uM): 173881
Raw Data (CCR4 [2]; 10 nM CCL22, 1.9 uM): 175875
Raw Data (CCR4 [2]; 10 nM CCL22, 5.6 uM): 212050
Raw Data (CCR4 [2]; 10 nM CCL22, 16.7 uM): 245795
Raw Data (CCR4 [2]; 10 nM CCL22, 50 uM): 223579
